# According to patent US20030162205, “Novel transcription factor having zinc finger domain” (published 2003):
# Assays:
# [1] = target: T1, GST-285C (m285 C-terminal, three zinc fingers) (Mus musculus, UniProt Q9JHX2 SEQ:271-398); experiment: competition; unlabeled mutant competitor had no effect on complex with GC-box; details: tags: GST N-terminal (pGEX 4T-3)
# Excerpt: (§1) Sp1 is known to bind to a GC-box through its three zinc finger domains. The m285 cloned in the present invention has three zinc finger domains that share a very high homology with the Sp family, and therefore the protein was expected to bind to a GC-box. Thus, 285F, 285N, and 285C were expressed as GST fusion proteins in E. coli to examine their binding to a GC-box. GST fusion proteins purified with glutathione Sepharose, and as the GC box a DNA probe having the nucleotide sequence in the Waf-1 promoter region which sequence binds to Sp1 were used. DNA probe was prepared by labeling ds-(5′-TCGAAAGGAGGCGGGACCCGAGCT-3′/SEQ ID NO: 25) containing a GC-box sequence with 33-P. The DNA probe was reacted with GST-285F, GST-285N, and GST-285C described above in EMSA buffer (20 mM HEPES, 40 mM KCl, 6 MM MgCl₂, 1 mM EGTA, 1 mM DTT, 0.1% NP-40, 10% Glycerol, 0.15% BSA, 25 ng/μl sonicated salmon sperm DNA) for 20 minutes. To examine the presence of competitive inhibition, either an unlabeled GC-box DNA probe or unlabeled mutant GC-box DNA probe (ds-(5′-TCGAAAGGAGTTTTGACCCGGAGCT-3′/SEQ ID NO: 26)) was further added to a similar reaction system. Recombinant Sp1 was used as a positive control. The reactants were electrophoresed on 5% acrylamide gel and were exposed to imaging plates. Analyses were performed using BAS2000 imaging analyzer.
# (§2) As a result of gel shift assay, bands that were considered to correspond to DNA-protein complex were observed when GST-285F, GST-285C, or recombinant Sp1 were reacted with the 33-P labeled GC-box DNA probe (FIG. 9; lanes 1, 4, and 9). No complex b and could be observed for GST-285N reacted with the GC-box DNA probe (FIG. 9; lane 7). The addition of unlabeled GC-box DNA probe vanished or decreased the complex bands of GST-285F, GST-285C, or recombinant Sp1, and the GC-box DNA probe (FIG. 9; lanes 2, 5, and 10). Further, the addition of unlabeled mutant GC-box DNA probe to a similar reaction system had no effect on the complex bands of GST-285F, GST-285C, or recombinant Sp1, and the GC-box DNA probe (FIG. 9; lanes 3, 6, and 11).
# [2] = target: T2, GST-285F (m285 full length) (Mus musculus, UniProt Q9JHX2 SEQ:1-398); experiment: as above; details: tags: GST N-terminal (pGEX 4T-3)
# Excerpt: as §1, §2
# [3] = target: T3, Sp1 (UniProt P08047 P08047:2-785); experiment: as above
# Excerpt: as §1, §2
# [4] = target: T2, GST-285F (m285 full length); experiment: EMSA; 20 mM HEPES, 40 mM KCl, 6 mM MgCl2, salmon sperm DNA; competed by unlabeled GC-box; details: tags: GST N-terminal (pGEX 4T-3); label: 33P
# Excerpt: as §1, with “analyzer. […]” for “analyzer.”
# [5] = target: GST-285N (m285 N-terminal) (Mus musculus, UniProt Q9JHX2 SEQ:1-278); experiment: EMSA; no complex; lacks zinc fingers; details: tags: GST N-terminal (pGEX 4T-3); label: 33P
# Excerpt: as §1, with “analyzer. […]” for “analyzer.”
# [6] = target: T3, Sp1; experiment: EMSA; positive control; competed by unlabeled GC-box; details: label: 33P
# Excerpt: as §1, with “analyzer. […]” for “analyzer.”
# [7] = target: T1, GST-285C (m285 C-terminal, three zinc …); experiment: EMSA; same buffer; competed by unlabeled GC-box; details: tags: GST N-terminal (pGEX 4T-3); label: 33P
# Excerpt: as §1, with “analyzer. […]” for “analyzer.”
# T2 sequence (Q9JHX2 whole entry): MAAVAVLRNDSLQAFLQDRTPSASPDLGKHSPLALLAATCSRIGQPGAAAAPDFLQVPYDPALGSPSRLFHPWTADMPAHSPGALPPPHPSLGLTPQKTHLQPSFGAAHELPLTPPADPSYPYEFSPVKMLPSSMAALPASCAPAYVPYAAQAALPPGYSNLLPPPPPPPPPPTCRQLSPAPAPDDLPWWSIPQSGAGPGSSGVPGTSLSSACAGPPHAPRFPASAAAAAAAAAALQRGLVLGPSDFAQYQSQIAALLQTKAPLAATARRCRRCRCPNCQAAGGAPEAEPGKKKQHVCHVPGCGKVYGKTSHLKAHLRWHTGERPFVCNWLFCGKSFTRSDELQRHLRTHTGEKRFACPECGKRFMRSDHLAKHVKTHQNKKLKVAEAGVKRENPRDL
# T1 sequence (Q9JHX2 271-398): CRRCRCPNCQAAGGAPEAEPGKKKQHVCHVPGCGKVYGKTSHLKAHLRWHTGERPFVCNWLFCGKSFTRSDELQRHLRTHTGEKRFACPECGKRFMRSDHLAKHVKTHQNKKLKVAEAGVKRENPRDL
# T3 sequence (P08047 2-785, one chain of several): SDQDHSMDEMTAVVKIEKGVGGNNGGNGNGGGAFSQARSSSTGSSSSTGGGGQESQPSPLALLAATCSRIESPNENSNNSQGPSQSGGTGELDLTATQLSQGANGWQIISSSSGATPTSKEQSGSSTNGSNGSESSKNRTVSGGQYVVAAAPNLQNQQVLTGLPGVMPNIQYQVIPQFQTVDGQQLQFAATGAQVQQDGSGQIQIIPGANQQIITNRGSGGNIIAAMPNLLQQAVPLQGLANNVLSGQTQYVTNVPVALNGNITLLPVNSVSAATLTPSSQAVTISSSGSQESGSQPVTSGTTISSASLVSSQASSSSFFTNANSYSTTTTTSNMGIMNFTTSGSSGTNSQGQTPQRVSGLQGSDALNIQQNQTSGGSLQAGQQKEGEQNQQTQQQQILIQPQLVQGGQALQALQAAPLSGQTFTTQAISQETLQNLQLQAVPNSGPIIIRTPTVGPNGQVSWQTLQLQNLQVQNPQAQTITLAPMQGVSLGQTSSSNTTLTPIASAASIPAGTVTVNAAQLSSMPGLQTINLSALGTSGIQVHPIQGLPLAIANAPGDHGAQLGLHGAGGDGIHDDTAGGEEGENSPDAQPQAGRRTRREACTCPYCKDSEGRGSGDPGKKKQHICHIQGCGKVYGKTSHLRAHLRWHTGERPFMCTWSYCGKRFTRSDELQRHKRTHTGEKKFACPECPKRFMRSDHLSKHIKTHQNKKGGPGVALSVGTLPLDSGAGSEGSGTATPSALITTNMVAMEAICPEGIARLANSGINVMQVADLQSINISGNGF
# Chain of GST-285N (m285 N-terminal) (Q9JHX2 1-278): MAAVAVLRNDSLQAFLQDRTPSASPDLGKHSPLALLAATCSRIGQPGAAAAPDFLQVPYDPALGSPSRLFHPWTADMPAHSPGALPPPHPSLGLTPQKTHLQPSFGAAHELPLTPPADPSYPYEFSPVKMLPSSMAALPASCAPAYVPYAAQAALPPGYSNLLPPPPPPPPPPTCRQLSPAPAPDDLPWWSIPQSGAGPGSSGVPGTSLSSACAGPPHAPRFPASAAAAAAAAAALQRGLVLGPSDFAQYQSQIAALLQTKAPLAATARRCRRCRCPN
Binder,binding result [1],binding result [2],binding result [3],binding result [4],binding result [5],binding result [6],binding result [7]
mutant GC-box (dsDNA) DNA 1: TCGAAAGGAGTTTTGACCCGGAGCT DNA 2: AGCTCCGGGTCAAAACTCCTTTCGA,no binding,no binding,no binding,–,–,–,–
Waf-1 promoter GC-box probe (dsDNA) DNA 1: TCGAAAGGAGGCGGGACCCGAGCT DNA 2: AGCTCGGGTCCCGCCTCCTTTCGA,–,–,–,binds,no binding,binds,binds
